Measurements taken from US12168773B2, “Engineered phosphoenolpyruvate carboxylase enzymes” (The Regents of the University of California, priority 2019, dated 2024).
Substitutions are numbered along the chain they refer to. Names and notes keep the numbering of the source.

Assays:
[1] = system: transgenic Arabidopsis seedlings; assay: root growth analysis of transgenic Arabidopsis in the presence of aluminum; assay type: in vivo, Arabidopsis thaliana; settings: day 7, 20° C, soaked gel, aluminum toxicity equivalent to about 50-100 μM; versus plants expressing wt AtPPC1
Experimental: Root growth was examined in transgenic Arabidopsis engineered to express wt AtPPC1, or a variant PEPC (G678S AtPPC1 or R886G AtPPC1) in a genotypic background devoid of expression of native AtPPC1. Seedlings from the transgenic Arabidopsis strains were grown at 20° C. in a soaked gel environment with aluminum toxicity equivalent to about 50-100 μM in the absence of agar. Root growth was assessed at day 7. […] This is consistent with the improved enzyme kinetics of the G678S AtPPC1 or R886G AtPPC1 enzymes described in Example 5.

[2] = system: Arabidopsis thaliana PPC1 (AtPPC1, C3 PEPC); assay: malate dehydrogenase coupled PEPC enzymatic assay, Arabidopsis C3 PPC1 and engineered variants; assay type: biochemical; settings: for Km: 0-7.5 mM phosphoenolpyruvate, read-out: Km PEP; for Km / Vmax: 25° C, HEPES pH7.5
From the text: (§1) For both Arabidopsis C3 PPC1 (AtPPC1) and maize C4 PPC1 (ZmPPC1), the entire coding sequence for each was cloned into pET22b, which contains an amino-terminal 6×-HIS tag for protein purification, and expression was driven by the T7 promoter and lac operon. Relevant mutations were introduced by the Stratagene QuikChange mutagenesis kit using PCR amplification. Both wild type and mutant cDNA constructs were sequenced entirely following cloning into pet22b. Proteins were produced by growing transformed E. coli (BL21 CodonPlus) in autoinduction medium at 18° C. for 16 hours. Proteins were isolated by sonication of bacterial cells followed by passage over a nickel sepharose affinity column, elution with imidazole and separation on a GE SUPERDEX HILOAD 200 PG 16/60 all using an AKTA FPLC.
(§2) Enzyme analysis was conducted in vitro using protein that was generated by expression in E. coli using the pET22b vector. For expression, pET22b constructs were transformed into E. coli BL21-DE3 codon plus RIL cells and grown at 37° C. in autoinduction media until reaching an OD=1 after which these were transferred to 18° C. for 18 hours. Samples were collected and lysed by sonication. Protein was purified by passage through a His-trap nickel affinity column on an Akta FPLC and then eluted with 400 mM imidazole. Partially purified protein was then separated on an FPLC equipped with a HiPrep S200 size exclusion column (16/60) after which collected sample was concentrated by centrifugation to a final concentration of 4 mg/ml in 50% glycerol. Samples were stored at −20° C.
(§3) For enzymatic assays, a malate dehydrogenase coupled reaction was conducted with a range of substrate concentrations (0-7.5 mM phosphoenolpyruvate pyruvate) and a range of concentrations of allosteric inhibitor (0-50 mM malate). Assays were monitored using a Victor2 microplate reader at 25° C. Reactions consisted of […] PPC enzyme variants, 50 mM HEPES pH7.5, 10 mM MgCl2, 10 mM KHCO3 (carbonate substrate), 0.2 mM NADH, and 10 units/ml of malate dehydrogenase. Reaction time was 15 minutes and samples were measured on an ˜40 second interval. For measurement, which monitors loss of NADH, excitation wavelength was 340 nM and emission wavelength was 460 nM. From these assays, the enzyme kinetics of Tables 4-1 and 4-2 were determined for each enzyme variant.

[3] = target: T1, Zea mays PPC1 (ZmPPC1, C4 PEPC) (Zea mays, UniProt P04711, A655V); assay: malate dehydrogenase coupled PEPC enzymatic assay, maize C4 PPC1 and engineered variants; assay type: biochemical; settings: Kcat/Km
T1 construct: 6xHis (N); made in house; host or cells: E. coli BL21 CodonPlus (pET22b)
T1 sequence (P04711 whole entry A655V): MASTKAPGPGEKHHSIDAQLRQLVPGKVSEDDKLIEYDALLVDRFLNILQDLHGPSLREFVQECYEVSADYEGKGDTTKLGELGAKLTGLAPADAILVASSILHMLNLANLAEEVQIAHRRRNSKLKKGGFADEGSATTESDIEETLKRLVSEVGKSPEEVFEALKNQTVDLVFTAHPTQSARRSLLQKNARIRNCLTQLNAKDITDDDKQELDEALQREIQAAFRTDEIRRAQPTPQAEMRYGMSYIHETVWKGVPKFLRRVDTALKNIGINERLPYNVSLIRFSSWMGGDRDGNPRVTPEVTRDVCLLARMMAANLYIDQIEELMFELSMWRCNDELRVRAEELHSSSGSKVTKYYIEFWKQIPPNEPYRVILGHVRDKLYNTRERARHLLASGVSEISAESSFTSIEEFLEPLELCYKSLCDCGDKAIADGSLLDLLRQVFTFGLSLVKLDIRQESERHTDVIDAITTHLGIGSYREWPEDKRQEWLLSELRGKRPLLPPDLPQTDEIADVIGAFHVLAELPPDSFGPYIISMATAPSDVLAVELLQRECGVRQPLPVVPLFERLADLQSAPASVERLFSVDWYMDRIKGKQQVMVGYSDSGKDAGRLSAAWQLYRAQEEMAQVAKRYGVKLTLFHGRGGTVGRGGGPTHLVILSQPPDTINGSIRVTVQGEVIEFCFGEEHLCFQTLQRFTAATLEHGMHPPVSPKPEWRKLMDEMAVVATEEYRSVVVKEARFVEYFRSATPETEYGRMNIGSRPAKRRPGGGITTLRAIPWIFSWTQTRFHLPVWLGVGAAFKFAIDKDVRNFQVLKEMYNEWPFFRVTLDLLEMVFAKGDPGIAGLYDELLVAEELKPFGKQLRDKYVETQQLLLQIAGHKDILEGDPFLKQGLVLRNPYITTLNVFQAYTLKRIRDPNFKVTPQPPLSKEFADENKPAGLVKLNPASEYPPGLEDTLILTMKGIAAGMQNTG
From the text: as §1, §2
as §3, with “nM.” for “nM. From these assays, the enzyme kinetics of Tables 4-1 and 4-2 were determined for each enzyme variant.”

[4] = system: Zea mays PPC1 (ZmPPC1, C4 PEPC); assay: as above; assay type: biochemical
From the text: as §1, §2
as §3, with “nM.” for “nM. From these assays, the enzyme kinetics of Tables 4-1 and 4-2 were determined for each enzyme variant.”

B1: AtPPC1 G678S: engineered Arabidopsis thaliana PPC1 with G678S substitution (alr-128), SEQ ID NO:11 (protein)
chain: MANRKLEKMASIDVHLRQLVPGKVSEDDKLVEYDALLLDRFLDILQDLHGEDLRETVQELYEHSAEYEGKHEPKKLEELGSVLTSLDPGDSIVIAKAFSHMLNLANLAEEVQIAYRRRIKKLKKGDFVDESSATTESDLEETFKKLVGDLNKSPEEIFDALKNQTVDLVLTAHPTQSVRRSLLQKHGRIRDCLAQLYAKDITPDDKQELDEALQREIQAAFRTDEIKRTPPTPQDEMRAGMSYFHETIWKGVPKFLRRVDTALKNIGIEERVPYNAPLIQFSSWMGGDRDGNPRVTPEVTRDVCLLARMMAATMYFNQIEDLMFEMSMWRCNDELRARADEVHANSRKDAAKHYIEFWKSIPTTEPYRVILGDVRDKLYHTRERAHQLLSNGHSDVPVEATFINLEQFLEPLELCYRSLCSCGDRPIADGSLLDFLRQVSTFGLSLVRLDIRQESDRHTDVLDAITTHLDIGSYREWSEERRQEWLLSELSGKRPLFGSDLPKTEEIADVLDTFHVIAELPADSFGAYIISMATAPSDVLAVELLQRECRVKQPLRVVPLFEKLADLEAAPAAVARLFSVDWYKNRINGKQEVMIGYSDSGKDAGRLSAAWQLYKAQEELVKVAKEYGVKLTMFHGRGGTVGRGGGPTHLAILSQPPDTINGSLRVTVQGEVIEQSFSEEHLCFRTLQRFTAATLEHGMRPPISPKPEWRALLDEMAVVATEEYRSVVFQEPRFVEYFRLATPELEYGRMNIGSRPSKRKPSGGIESLRAIPWIFAWTQTRFHLPVWLGFGSAIRHVIEKDVRNLHMLQDMYQHWPFFRVTIDLIEMVFAKGDPGIAALYDKLLVSEELWPFGEKLRANFEETKKLILQTAGHKDLLEGDPYLKQRLRLRDSYITTLNVCQAYTLKRIRDPSYHVTLRPHISKEIAESSKPAKELIELNPTSEYAPGLEDTLILTMKGIAAGLQNTG
root growth in the presence of aluminum [1]: large increase | Km [2]: 433 ± 40 µM | Vmax [2]: 17.784 ± 0.44 units/mg | increase in catalytic efficiency over wt AtPPC1 ([2]; Kcat/Km relative to wt AtPPC1): ~5 fold | reduction in Km ([2]; compared with wt AtPPC1): 85%

B2: AtPPC1 wild type: wild type Arabidopsis thaliana PPC1, C3 PEPC, SEQ ID NO:1 (protein)
chain: B1 chain with S678G
Km [2]: 2740 ± 166 µM | Vmax [2]: 24.992 ± 0.69 units/mg

B3: AtPPC1 R886G: engineered Arabidopsis thaliana PPC1 enzyme with R886G substitution (protein, UniProt Q9MAH0 1-967, looked up, variant R886G)
Phosphoenolpyruvate …: B1 chain with S678G, R886G
root growth in the presence of aluminum [1]: large increase | Km [2]: 1110 ± 36 µM | Vmax [2]: 12.586 ± 0.14 units/mg

B4: AtPPC1 T778I: engineered Arabidopsis thaliana PPC1 with T778I substitution (alr-139), SEQ ID NO:12 (protein)
chain: B1 chain with S678G, T778I
Km [2]: 1090 ± 27 µM | Vmax [2]: 14.738 ± 0.15 units/mg

B5: ZmPPC1 A651V: engineered Zea mays PPC1 with A651V substitution (A655V in SEQ ID NO:15) (protein)
chain: MASTKAPGPGEKHHSIDAQLRQLVPGKVSEDDKLIEYDALLVDRFLNILQDLHGPSLREFVQECYEVSADYEGKGDTTKLGELGAKLTGLAPADAILVASSILHMLNLANLAEEVQIAHRRRNSKLKKGGFADEGSATTESDIEETLKRLVSEVGKSPEEVFEALKNQTVDLVFTAHPTQSARRSLLQKNARIRNCLTQLNAKDITDDDKQELDEALQREIQAAFRTDEIRRAQPTPQDEMRYGMSYIHETVWKGVPKFLRRVDTALKNIGINERLPYNVSLIRFSSWMGGDRDGNPRVTPEVTRDVCLLARMMAANLYIDQIEELMFELSMWRCNDELRVRAEELHSSSGSKVTKYYIEFWKQIPPNEPYRVILGHVRDKLYNTRERARHLLASGVSEISAESSFTSIEEFLEPLELCYKSLCDCGDKAIADGSLLDLLRQVFTFGLSLVKLDIRQESERHTDVIDAITTHLGIGSYREWPEDKRQEWLLSELRGKRPLLPPDLPQTDEIADVIGAFHVLAELPPDSFGPYIISMATAPSDVLAVELLQRECGVRQPLPVVPLFERLADLQSAPASVERLFSVDWYMDRIKGKQQVMVGYSDSGKDAGRLSAAWQLYRAQEEMAQVAKRYGVKLTLFHGRGGTVGRGGGPTHLVILSQPPDTINGSIRVTVQGEVIEFCFGEEHLCFQTLQRFTAATLEHGMHPPVSPKPEWRKLMDEMAVVATEEYRSVVVKEARFVEYFRSATPETEYGRMNIGSRPAKRRPGGGITTLRAIPWIFSWTQTRFHLPVWLGVGAAFKFAIDKDVRNFQVLKEMYNEWPFFRVTLDLLEMVFAKGDPGIAGLYDELLVAEELKPFGKQLRDKYVETQQLLLQIAGHKDILEGDPFLKQGLVLRNPYITTLNVFQAYTLKRIRDPNFKVTPQPPLSKEFADENKPAGLVKLNPASEYPPGLEDTLILTMKGIAAGMQNTG
increase in catalytic efficiency relative to wt ZmPPC1 [3]: > 7 fold | effects of the allosteric inhibitor malate relative to wt ZmPPC1 [4]: greatly reduce | Km ([4]; 0-7.5 mM phosphoenolpyruvate, 25° C, HEPES pH7.5, read-out: Km PEP): 477 ± 42 µM | Vmax ([4]; 25° C, HEPES pH7.5): 12.84 ± 0.89 units/mg | effect of malate on enzyme ([4]; at 50 mM malate): wholly unaffected | activity of C4 PEPC ([4]; substitution introduced into maize C4 PEPC (ZmPPC1)): increased activity
